According to patent US10766952B2, “Methods for reducing migraine frequency in a subject in need thereof” (Beth Israel Deaconess Medical Center, Inc., priority 2017, dated 2020):

T1: rat α-CGRP (Rattus norvegicus, UniProt P01256)
T1 construct: rat α (1-37); host or cells: synthetic peptide
T1 sequence (P01256 83-119 limits assumed): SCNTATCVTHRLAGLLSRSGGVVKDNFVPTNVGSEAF

T2: human α-CGRP (Homo sapiens, UniProt P06881)
T2 construct: 1-37 (WT); purchased; host or cells: synthetic peptide
T2 sequence (P06881 83-119 limits assumed): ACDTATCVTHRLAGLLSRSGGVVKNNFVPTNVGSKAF


Assays:
rat α-CGRP = molecular target: T1, rat α-CGRP; experiment: Biacore affinity of antibody G1 Fab and variants to rat α-CGRP; type: binding; conditions: 37° C., Fab, screening mode unless underlined
Experimental: (§1) Biacore assay for affinity determination. […] All Biacore assays were conducted in HBS-EP running buffer (10 mM HEPES pH 7.4, 150 mM NaCl, 3 mM EDTA, 0.005% v/v polysorbate P20). CGRP surfaces were prepared by diluting the N-biotinylated CGRP to a concentration of less than 0.001 mg/mL into HBS-EP buffer and injecting it across the SA sensor chip using variable contact times. Low capacity surfaces, corresponding to capture levels <50 response units (RU) were used for high-resolution kinetic studies, whereas high capacity surfaces (about 800 RU of captured CGRP) were used for concentration studies, screening, and solution affinity determinations. […] Samples were typically injected for lminute at 100 μL/min and dissociation times of at least 10 minutes were allowed. After each binding cycle, surfaces were regenerated with 25 mM NaOH in 25% v/v ethanol, which was tolerated over hundreds of cycles. An entire titration series (typically generated in duplicate) was fit globally to a 1:1 Langmuir binding model using the BlAevaluation program. This returned a unique pair of association and dissociation kinetic rate constants (respectively, kon and koff) for each binding interaction, whose ratio gave the equilibrium dissociation constant (KD=koff/[…]).
(§2) High-resolution analysis of binding interactions with extremely slow offrates. […] The protocol described above was used with the following modifications. The association rate constant (kon) was determined by injecting a 2-fold titration series (in duplicate) spanning 550 nM-1 nM for 30 seconds at 100 μL/min and allowing only a 30 second dissociation phase. The dissociation rate constant (koff) was determined by injecting three concentrations (high, medium, and low) of the same titration series in duplicate for 30 seconds and allowing a 2-hour dissociation phase. The affinity (KD) of each interaction was obtained by combining the kon and koff values obtained in both types of experiments, as shown in Table 4.
(§3) The binding affinities of Fab fragments were determined by Biacore by flowing them across CGRPs on a SA chip.

human α-CGRP = molecular target: T2, human α-CGRP; experiment: Biacore affinity of antibody G1 Fab and variants to human α-CGRP; type: binding; conditions: 37° C., Fab, screening mode unless underlined
Experimental: as §1, §2, §3

Row | Molecule | α-rat koff (rat α-CGRP) | α-human koff (human α-CGRP) [s⁻¹]
1 | M56: G1 variant: L1 R28N,T30D; L2 L56S; H2 E54K,A57N,H61F; HC-FW3 L99T,A100V (antibody, V domains shown) VH: EVQLVESGGGLVQPGGSLRLSCAASGFTFSNYWISWVRQAPGKGLEWVAEIRSKSDNSATFYAEAVKGRFTISRDNAKNSLYLQMNSLRAEDTAVYYCTVYFDYGLAIQNYWGQGTLVTVSS VL: EIVLTQSPATLSLSPGERATLSCKASKNVDTYVSWYQQKPGQAPRLLIYGASNRYSGIPARFSGSGSGTDFTLTISSLEPEDFAVYYCSQSYNYPYTFGQGTKLEIK | 0.00935 s⁻¹ | 0.000479
2 | M57: G1 variant: L1 R28N,T30D; L2 L56S; H2 E54K,A57N,S58E; HC-FW3 L99T,A100V (antibody, V domains shown) VH: EVQLVESGGGLVQPGGSLRLSCAASGFTFSNYWISWVRQAPGKGLEWVAEIRSKSDNEATHYAEAVKGRFTISRDNAKNSLYLQMNSLRAEDTAVYYCTVYFDYGLAIQNYWGQGTLVTVSS VL: EIVLTQSPATLSLSPGERATLSCKASKNVDTYVSWYQQKPGQAPRLLIYGASNRYSGIPARFSGSGSGTDFTLTISSLEPEDFAVYYCSQSYNYPYTFGQGTKLEIK | 0.0104 s⁻¹ | 0.000322
3 | M58: G1 variant: L1 R28N,T30D; L2 L56S; H2 E54K,A57N,S58I,H61F; HC-FW3 L99T,A100V (antibody, V domains shown) VH: EVQLVESGGGLVQPGGSLRLSCAASGFTFSNYWISWVRQAPGKGLEWVAEIRSKSDNIATFYAEAVKGRFTISRDNAKNSLYLQMNSLRAEDTAVYYCTVYFDYGLAIQNYWGQGTLVTVSS VL: EIVLTQSPATLSLSPGERATLSCKASKNVDTYVSWYQQKPGQAPRLLIYGASNRYSGIPARFSGSGSGTDFTLTISSLEPEDFAVYYCSQSYNYPYTFGQGTKLEIK | No binding | 0.00195
4 | M59: G1 variant: L1 R28N,T30D; L2 L56S; H2 E54K,A57N,S58N,H61F; HC-FW3 L99T,A100V (antibody, V domains shown) VH: EVQLVESGGGLVQPGGSLRLSCAASGFTFSNYWISWVRQAPGKGLEWVAEIRSKSDNNATFYAEAVKGRFTISRDNAKNSLYLQMNSLRAEDTAVYYCTVYFDYGLAIQNYWGQGTLVTVSS VL: EIVLTQSPATLSLSPGERATLSCKASKNVDTYVSWYQQKPGQAPRLLIYGASNRYSGIPARFSGSGSGTDFTLTISSLEPEDFAVYYCSQSYNYPYTFGQGTKLEIK | 0.0123 s⁻¹ | 0.000524
5 | M60: G1 variant: L1 R28N,T30D; L2 L56S; H2 E54K,A57N,S58R,H61F; HC-FW3 L99T,A100V (antibody, V domains shown) VH: EVQLVESGGGLVQPGGSLRLSCAASGFTFSNYWISWVRQAPGKGLEWVAEIRSKSDNRATFYAEAVKGRFTISRDNAKNSLYLQMNSLRAEDTAVYYCTVYFDYGLAIQNYWGQGTLVTVSS VL: EIVLTQSPATLSLSPGERATLSCKASKNVDTYVSWYQQKPGQAPRLLIYGASNRYSGIPARFSGSGSGTDFTLTISSLEPEDFAVYYCSQSYNYPYTFGQGTKLEIK | 0.0272 s⁻¹ | 0.000911
6 | M61: G1 variant: L1 R28N,T30G; L2 A51H; H2 E54Q,A57N,H61F; HC-FW3 L99T,A100V (antibody, V domains shown) VH: EVQLVESGGGLVQPGGSLRLSCAASGFTFSNYWISWVRQAPGKGLEWVAEIRSQSDNSATFYAEAVKGRFTISRDNAKNSLYLQMNSLRAEDTAVYYCTVYFDYGLAIQNYWGQGTLVTVSS VL: EIVLTQSPATLSLSPGERATLSCKASKNVGTYVSWYQQKPGQAPRLLIYGHSNRYLGIPARFSGSGSGTDFTLTISSLEPEDFAVYYCSQSYNYPYTFGQGTKLEIK | 0.00521 s⁻¹ | 0.000459
7 | M62: G1 variant: L1 R28N,T30G; L2 A51H,L56T; H2 E54K,A57N,S58E; HC-FW3 L99T,A100V (antibody, V domains shown) VH: EVQLVESGGGLVQPGGSLRLSCAASGFTFSNYWISWVRQAPGKGLEWVAEIRSKSDNEATHYAEAVKGRFTISRDNAKNSLYLQMNSLRAEDTAVYYCTVYFDYGLAIQNYWGQGTLVTVSS VL: EIVLTQSPATLSLSPGERATLSCKASKNVGTYVSWYQQKPGQAPRLLIYGHSNRYTGIPARFSGSGSGTDFTLTISSLEPEDFAVYYCSQSYNYPYTFGQGTKLEIK | 0.00575 s⁻¹ | 0.000557
8 | M63: G1 variant: L1 R28N,T30G; L2 G50A; H2 E54K,A57N,S58T; HC-FW3 L99T,A100V (antibody, V domains shown) VH: EVQLVESGGGLVQPGGSLRLSCAASGFTFSNYWISWVRQAPGKGLEWVAEIRSKSDNTATHYAEAVKGRFTISRDNAKNSLYLQMNSLRAEDTAVYYCTVYFDYGLAIQNYWGQGTLVTVSS VL: EIVLTQSPATLSLSPGERATLSCKASKNVGTYVSWYQQKPGQAPRLLIYAASNRYLGIPARFSGSGSGTDFTLTISSLEPEDFAVYYCSQSYNYPYTFGQGTKLEIK | 0.00265 s⁻¹ | 0.0015
9 | M64: G1 variant: L1 R28N,T30G; L2 G50A; H2 E54K,A57N,S58V; HC-FW3 L99T,A100V (antibody, V domains shown) VH: EVQLVESGGGLVQPGGSLRLSCAASGFTFSNYWISWVRQAPGKGLEWVAEIRSKSDNVATHYAEAVKGRFTISRDNAKNSLYLQMNSLRAEDTAVYYCTVYFDYGLAIQNYWGQGTLVTVSS VL: EIVLTQSPATLSLSPGERATLSCKASKNVGTYVSWYQQKPGQAPRLLIYAASNRYLGIPARFSGSGSGTDFTLTISSLEPEDFAVYYCSQSYNYPYTFGQGTKLEIK | 0.0234 s⁻¹ | 0.00132
10 | M65: G1 variant: L1 R28N,T30G; L2 G50A,L56I; H2 E54K,A57C; HC-FW3 L99T,A100V (antibody, V domains shown) VH: EVQLVESGGGLVQPGGSLRLSCAASGFTFSNYWISWVRQAPGKGLEWVAEIRSKSDCSATHYAEAVKGRFTISRDNAKNSLYLQMNSLRAEDTAVYYCTVYFDYGLAIQNYWGQGTLVTVSS VL: EIVLTQSPATLSLSPGERATLSCKASKNVGTYVSWYQQKPGQAPRLLIYAASNRYIGIPARFSGSGSGTDFTLTISSLEPEDFAVYYCSQSYNYPYTFGQGTKLEIK | 0.00407 s⁻¹ | 0.000803
11 | M66: G1 variant: L1 R28N,T30G; L2 L56I; H2 E54K,A57E; HC-FW3 L99T,A100V (antibody, V domains shown) VH: EVQLVESGGGLVQPGGSLRLSCAASGFTFSNYWISWVRQAPGKGLEWVAEIRSKSDESATHYAEAVKGRFTISRDNAKNSLYLQMNSLRAEDTAVYYCTVYFDYGLAIQNYWGQGTLVTVSS VL: EIVLTQSPATLSLSPGERATLSCKASKNVGTYVSWYQQKPGQAPRLLIYGASNRYIGIPARFSGSGSGTDFTLTISSLEPEDFAVYYCSQSYNYPYTFGQGTKLEIK | 0.00511 s⁻¹ | 0.00052
12 | M67: G1 variant: L1 R28N,T30G; L2 L56I; H2 E54K,A57F; HC-FW3 L99T,A100V (antibody, V domains shown) VH: EVQLVESGGGLVQPGGSLRLSCAASGFTFSNYWISWVRQAPGKGLEWVAEIRSKSDFSATHYAEAVKGRFTISRDNAKNSLYLQMNSLRAEDTAVYYCTVYFDYGLAIQNYWGQGTLVTVSS VL: EIVLTQSPATLSLSPGERATLSCKASKNVGTYVSWYQQKPGQAPRLLIYGASNRYIGIPARFSGSGSGTDFTLTISSLEPEDFAVYYCSQSYNYPYTFGQGTKLEIK | 0.00171 s⁻¹ | 0.00082
13 | M68: G1 variant: L1 R28N,T30G; L2 L56I; H2 E54K,A57N,S58D,E64D; HC-FW3 L99T,A100V (antibody, V domains shown) VH: EVQLVESGGGLVQPGGSLRLSCAASGFTFSNYWISWVRQAPGKGLEWVAEIRSKSDNDATHYADAVKGRFTISRDNAKNSLYLQMNSLRAEDTAVYYCTVYFDYGLAIQNYWGQGTLVTVSS VL: EIVLTQSPATLSLSPGERATLSCKASKNVGTYVSWYQQKPGQAPRLLIYGASNRYIGIPARFSGSGSGTDFTLTISSLEPEDFAVYYCSQSYNYPYTFGQGTKLEIK | 0.00676 s⁻¹ | 0.000428
